# T1: p01 small terminase subunit (Pseudomonas aeruginosa phage PaP3) (UniProt Q8H9R5)
# T1 sequence: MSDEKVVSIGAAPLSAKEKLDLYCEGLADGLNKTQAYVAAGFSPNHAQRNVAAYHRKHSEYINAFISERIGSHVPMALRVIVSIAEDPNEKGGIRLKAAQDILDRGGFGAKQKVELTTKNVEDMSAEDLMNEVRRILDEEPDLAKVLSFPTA
# T2: p03 large terminase subunit (Pseudomonas aeruginosa phage PaP3, UniProt Q8H9R7 1-482)
# T2 sequence: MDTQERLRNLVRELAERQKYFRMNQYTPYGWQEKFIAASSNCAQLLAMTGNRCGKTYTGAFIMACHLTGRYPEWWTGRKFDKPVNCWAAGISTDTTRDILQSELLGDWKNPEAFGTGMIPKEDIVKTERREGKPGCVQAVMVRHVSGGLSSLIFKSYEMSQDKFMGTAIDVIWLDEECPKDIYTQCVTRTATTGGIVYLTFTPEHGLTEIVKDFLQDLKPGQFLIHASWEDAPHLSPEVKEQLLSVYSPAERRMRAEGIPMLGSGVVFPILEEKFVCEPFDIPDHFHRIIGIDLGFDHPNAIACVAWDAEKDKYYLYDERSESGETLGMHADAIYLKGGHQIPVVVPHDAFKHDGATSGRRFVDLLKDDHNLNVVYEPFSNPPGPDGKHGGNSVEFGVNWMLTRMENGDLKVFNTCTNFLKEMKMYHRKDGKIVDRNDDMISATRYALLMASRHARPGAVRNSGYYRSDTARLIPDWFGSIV
# How the values were obtained:
# [1] = biological target: T1, p01 small terminase subunit (Pseudomonas aeruginosa phage PaP3); experiment: EMSA; settings: 50 mM Tris-HCl pH 8.0, 50 mM NaCl, 10 mM MgCl2, 5% glycerol, 1.5 uM DNA, 37 C 30 min, stopped with 20 mM EDTA; 5% native PAGE in 0.5x TBE
# [2] = biological target: T2, p03 large terminase subunit; experiment: EMSA; 10 mM Mg2+; 50 mM Tris-HCl pH 8.0, 50 mM NaCl, 10 mM MgCl2, 5% glycerol, 1.5 uM DNA, 37 C 30 min, stopped with 20 mM EDTA; 5% native PAGE in 0.5x TBE; settings: protein: recombinant; tags: C-terminal His6 (pET-22b); label: 5'-biotin; blunt
# [3] = biological target: T2, p03 large terminase subunit; experiment: EMSA; 10 mM Mg2+; 0.4 uM p03; 50 mM Tris-HCl pH 8.0, 50 mM NaCl, 10 mM MgCl2, 5% glycerol, 1.5 uM DNA, 37 C 30 min, stopped with 20 mM EDTA; 5% native PAGE in 0.5x TBE; settings: protein: recombinant; tags: C-terminal His6 (pET-22b); label: 5'-biotin; blunt
molecule,measurement,setting,value
ATACTCCCCGTCGCGCTTGAACCACGGGGTCTGTCAATTGATTGCGCTGGGACAGGCTACCAGTCGGGCCTTCTATGGTACAAGGCCAGGACCTACGCTCTTTCGGAGTGTGCGTTATTCCCTCAGCTTTCGGGTTTCTCCCTTGTTCAGTCCAAGGACCGTCGAAGGTACACTTTCCCCAGGTGGCCGTCACCTGATGGGTGCCCATGTTAGAGCCGTGGGCTTGCCTTGTCAACCCT (double strand) [cos239dn],binding,[1],no binding
24-bp non-cos DNA (dsDNA) DNA 1: GCACTGCAGTAACTTGTCAGTCAT DNA 2: ATGACTGACAAGTTACTGCAGTGC,binding result,[2],no binding
20-bp cos end sequence (dsDNA) DNA 1: GCCGGCCCCTTTCCGCGTTA DNA 2: TAACGCGGAAAGGGGCCGGC,binding result,[3],binds

# Reference: PMC3488191, “Functional identification of the DNA packaging terminase from Pseudomonas aeruginosa phage PaP3”
